1 substance from patent US20240316102A1 can be followed below.

The target of the test is CD38 on expanded NK cells (g-NK or cNK) (human) (UniProt P28907). Put plainly: cell-based or functional assay.

With daratumumab (antibody), the daratumumab-induced fratricide of expanded NK cells (4 h, 1 µg/mL, PI staining, 3-color flow cytometry) (times lower (g-NK versus cNK)) is 13.
